# Data taken from PMC3821029.
# Substrate: CO[C@H]1O[C@H](COS(=O)(=O)O)[C@@H](O[C@@H]2O[C@@H](C(=O)O)[C@@H](O[C@H]3O[C@H](COS(=O)(=O)O)[C@@H](O[C@@H]4O[C@H](C(=O)O)[C@@H](O[C@H]5O[C@H](COS(=O)(=O)O)[C@@H](O)[C@H](O)[C@H]5NS(=O)(=O)O)[C@H](O)[C@H]4O)[C@H](OS(=O)(=O)O)[C@H]3NS(=O)(=O)O)[C@H](O)[C@H]2OS(=O)(=O)O)[C@H](O)[C@H]1NS(=O)(=O)O
# Test: purified protein, by the assay type
# Details: pH 5.0
protein,measurement,value
Recombinant human heparanase (Homo sapiens) (protein) chain 1: KKFKNSTYSRSSVDVLYTFANCSGLDLIFGLNALLRTADLQWNSSNAQLLLDYCSSKGYNISWELGNEPNSFLKKADIFINGSQLGEDFIQLHKLLRKSTFKNAKLYGPDVGQPRRKTAKMLKSFLKAGGEVIDSVTWHHYYLNGRTATKEDFLNPDVLDIFISSVQKVFQVVESTRPGKKVWLGETSSAYGGGAPLLSDTFAAGFMWLDKLGLSARMGIEVVMRQVFFGAGNYHLVDENFDPLPDYWLSLLFKKLVGTKVLMASVQGSKRRKLRVYLHCTNTDNPRYKEGDLTLYAINLHNVTKYLRLPYPFSNKQVDKYLLRPLGPHGLLSKSVQLNGLTLKMVDDQTLPPLMEKPLRPGSSLGLPAFSYSFFVIRNAKVAACI chain 2: QDVVDLDFFTQEPLHLVSPSFLSVTIDANLATDPRFLILLGSPKLRTLARGLSPAYLRFGGTKTDFLIFDPKKE,Km,3.6 ± 0.5 µM
